Assay results from article doi:10.1101/123679 (bioRxiv, 2017).

Experiments:
Assay in all cases: FRET or BRET
[1] = molecular target: T1, mRFP-RTN1 (Arabidopsis reticulon 1) (Arabidopsis thaliana, UniProt Q9SUR3 1-275)
T1 sequence (looked up): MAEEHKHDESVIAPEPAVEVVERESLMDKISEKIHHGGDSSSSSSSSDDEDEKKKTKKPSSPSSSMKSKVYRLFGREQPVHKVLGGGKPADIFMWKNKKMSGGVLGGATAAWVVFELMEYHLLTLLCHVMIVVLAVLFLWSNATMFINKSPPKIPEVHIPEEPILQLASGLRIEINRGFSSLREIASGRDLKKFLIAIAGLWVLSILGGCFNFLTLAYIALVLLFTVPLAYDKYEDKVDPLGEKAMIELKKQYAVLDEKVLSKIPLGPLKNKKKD

[2] = molecular target: T2, RTN2 fused to mRFP (Arabidopsis reticulon 2) (Arabidopsis thaliana, UniProt Q9SUT9 1-271)
T2 sequence (looked up): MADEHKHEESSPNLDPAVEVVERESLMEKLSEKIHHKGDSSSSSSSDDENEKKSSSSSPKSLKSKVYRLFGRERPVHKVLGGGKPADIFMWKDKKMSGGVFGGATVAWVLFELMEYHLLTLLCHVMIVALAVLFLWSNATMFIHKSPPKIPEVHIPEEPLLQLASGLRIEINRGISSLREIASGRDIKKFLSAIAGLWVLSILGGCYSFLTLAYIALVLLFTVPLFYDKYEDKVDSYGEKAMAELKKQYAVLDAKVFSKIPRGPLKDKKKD

[3] = molecular target: T3, RTN3 fused to mRFP (Arabidopsis reticulon 3) (Arabidopsis thaliana, UniProt Q9SH59 1-255)
T3 sequence (looked up): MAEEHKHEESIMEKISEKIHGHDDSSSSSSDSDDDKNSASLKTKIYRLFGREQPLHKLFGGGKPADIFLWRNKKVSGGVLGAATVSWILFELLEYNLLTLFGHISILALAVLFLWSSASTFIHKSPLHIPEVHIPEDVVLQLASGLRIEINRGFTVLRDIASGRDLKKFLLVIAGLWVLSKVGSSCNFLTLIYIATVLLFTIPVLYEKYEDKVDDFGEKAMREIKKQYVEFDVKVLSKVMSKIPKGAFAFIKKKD

[4] = molecular target: T4, RTN19 fused to mRFP (Arabidopsis reticulon 19, 3BETAHSD/D2) (Arabidopsis thaliana, UniProt Q67ZE1 1-564)
T4 sequence (looked up): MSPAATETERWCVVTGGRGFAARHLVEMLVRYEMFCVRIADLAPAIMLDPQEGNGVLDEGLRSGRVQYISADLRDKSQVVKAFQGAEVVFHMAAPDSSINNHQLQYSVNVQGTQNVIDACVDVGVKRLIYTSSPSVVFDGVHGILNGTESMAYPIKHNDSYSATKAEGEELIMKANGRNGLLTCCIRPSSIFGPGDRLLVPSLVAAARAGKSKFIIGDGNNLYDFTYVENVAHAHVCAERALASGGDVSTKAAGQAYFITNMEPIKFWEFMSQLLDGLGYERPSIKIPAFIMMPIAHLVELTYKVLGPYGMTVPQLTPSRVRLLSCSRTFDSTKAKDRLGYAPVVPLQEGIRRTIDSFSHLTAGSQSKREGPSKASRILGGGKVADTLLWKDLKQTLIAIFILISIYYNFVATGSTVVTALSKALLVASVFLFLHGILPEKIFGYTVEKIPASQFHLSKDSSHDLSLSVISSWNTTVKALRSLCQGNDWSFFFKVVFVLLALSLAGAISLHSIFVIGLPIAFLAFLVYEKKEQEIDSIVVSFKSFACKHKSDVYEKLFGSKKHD

B1: GFP-RTN20 (Arabidopsis reticulon 20) (natural protein, Arabidopsis thaliana, UniProt A9X4U2 1-561, looked up)
chain: MDEDSVHGDSHLKTCVVLGGRGFIGRSLVSRLLRLGNWTVRVADSGHTLHLDESDSLLEDALSSGRASYHCVDVRDKPQIVKVTEGSYVVFYMGATDLRSHDYFDCYKVIVQGTRNVISACRESGVRKLIYNSTADVVFDGSQPIRDGDESLRRPLKFQSMLTDFKAQAEALIKLANNRDGLLTCALRSSIVFGPGDTEFVPFLVNLAKSGYAKFILGSGENISDFTYSENVSHAHICAVKALDSQMEFVAGKEFFITNLKPVRFWDFVSHIVEGLGYPRPSIKLPVRLVLYVFSLLKWTHEKEGLGSNYDTAHQYALLASSTRTFNCNAAKKHLGYTPVVTLEDGIASTLQWFSRDLEKSDDTIIQSTADQLLGCGKVADILLWRNEKKTFVSFLVLNLFYYWFFFSGNTFTSSAAQLLFIFAVALYGVSFVPSKIFGFQVNKIPPWRFEISESAVRDLSSDIVVVWNQGVRSFKSLSSGGDWIKFFKIAGSLYLLKLIVSRSLAAFLFTVMSFSFTGFFIYEQYELELYHLARIFVECLTFIKRMVIPVSDASSKPMFM
- fluorescence lifetime of the GFP donor (FRET-FLIM) [1]: 2.21 ns
- fluorescence lifetime of the GFP donor (FRET-FLIM) [2]: 2.2 ns
- fluorescence lifetime of the GFP donor (FRET-FLIM) [3]: 2.2 ns
- fluorescence lifetime of the GFP donor (FRET-FLIM) [4]: 2.2 ns
